The text below walks through data of the nanobody polyreactivity screen of Harvey et al. (2022).

The series is described as follows: yeast display, Sf9 membrane polyspecificity reagent, FACS + sequencing; frameworks hold sequencing errors. The method in brief:
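Polyreactivity labels are assigned by the sorting gate from which each nanobody was recovered. The gates were low and high (top ~1%), set on anti-HA fluorescence for expression and streptavidin fluorescence for reagent binding. Before sorting, galactose-induced (36–48 hours) yeast display cells were stained for 1 hour at 4 °C with 10% biotinylated, detergent-solubilized Sf9 membrane reagent.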
Take “QVQLVESGGGLVQAGGSLRLSCAASGFIFSSNAMGWYRQAPGKEREFVAAISFRGGTTYYADSVKGRFTISRDNAKNTVYLQMKSLKPEDTAVYYCNAVRWRSGRWWWYDYWGQGTQVTVSS”: the “polyreactivity (PSR sort gate)” value was “low polyreactivity”.

Consider “QVQLVESGGGLVQAGGSLRLSCAASGSIFAGYVMGWYRPAPGKERELVAATYYADSVKGRFTISRDNAKNTVYLQMNSLKPEDTAVYYCNAESLYTHYNDTSLTVEYGYWGQGTQVTVSS”, for which the “polyreactivity (PSR sort gate)” value is recorded as “low polyreactivity”.

“QVQLVESGGCLVQAGGSLRLSCAASGSTFNKYAMGWYRQAPGKERELVAAIRSNGVRTYYADSVKGRFSISRDNAKNTVYLQMNSLKPEDTPVYYCNKRYTYRYDYWGQGTQVCVSS”: the “polyreactivity (PSR sort gate)” value is listed as “high polyreactivity”.

With “QVQLVESGGGLVQAGGSLRLSCAASGFIFDAYALGWYRQAPGKERELVAAITRGNTYYADSVKGRFTISRDNAKNTVYLQMNSLKPEDTAVYYCAARYWQSYRSQVTHSSTLDYWGQGTQVTVSS”, the “polyreactivity (PSR sort gate)” value is recorded as “low polyreactivity”.

On to “HVQLVESGGGLVQAGVSLRLSCAASGRLLEGYAMGWYRQAPGKERELVAAISFSTTTTYYADSVKGRFTISRDNAKNTVYLQMNSLKPEDTAVYYCAADSQQSDYDYWGQGTQVTVSS”, for which the “polyreactivity (PSR sort gate)” value is given as “high polyreactivity”.

“QVQLVESGGGLVQAGGSLRLSCAASGSIFAYYAMGWYRQAPGKERELVAAISSGGSTNYADSVKGRFTISRDNAKNPVYLQMNSLKPEDTAVYDCAKRSYYGLTYYSWGQGTQVTVSS”: the “polyreactivity (PSR sort gate)” value is listed as “low polyreactivity”.

Regarding “QVQLVESGGGLVQAGGSLRLSCAASGSIFSWYAMGWYRQAPGKERELVAAISNSGGSTYYADSVKGRFTISRDNAKNTVYLQMNSLKPEDTAVYYCAAYDGDTYDWGQGTQVTVSS”, the “polyreactivity (PSR sort gate)” value is reported as “high polyreactivity”.

As to “QVQLVESGGGLVQAGGSLRLSCAASGFIFSNYAMGWYRQAPGKERELVARISSSGGSTYYADSVKVRFTISRDIAKNTVYLQMNSLKPEVTAVYYCAAGFNLPAWGWAYYYWGQGTQVTVSS”, the “polyreactivity (PSR sort gate)” value is reported as “high polyreactivity”.

With “QVQLVESGGGLVQAGGSLRLSCAASGFTFRSYVMGWYRQAPGKERELVASISSGGITKYADSVKGRFTISRDNAKNTVYLQMNSLKPEDTAVYYCNARTYSNTVLNYGLQYGYDYWGQGTQVTVSS”, the “polyreactivity (PSR sort gate)” value is given as “high polyreactivity”.

As for “QVQLVESGGGLVQAGGSLRLSCAASGFIFYRYAMGWYRQAPGKERELVAAITGGGSTYYADSVKGRFTISRDNAKNNFYLQMNSLKPEDTAVYYCAARKRYWFTPYDYWGQGTQVTVSS”, the “polyreactivity (PSR sort gate)” value was “high polyreactivity”.

Turning to “QVQLVESGGGLVQAGGSLRLSCAASGRTFYRYAMGWYRQAPGKERELVASINRGGSTNYADSVKGRFTISRDNAKNTVFLQMNCLKPEDTAVYYCACYCYCYWGQGTQVTVSS”, the “polyreactivity (PSR sort gate)” value is given as “low polyreactivity”.

For “QVQLVESGGGLVQAGGNLRLSCAASGRIFSSYAMGWYRQAPGKERELVAAITGTGGTTYYADSVKGRFTISRDNAKYTVYLQMNSLKPEDTAVYYCNAERIYRLSRDSAVQYDYWGQGTQVTVSS”, the “polyreactivity (PSR sort gate)” value was “low polyreactivity”.

As for “QVQRVESGGGLVQAGGSLRLSSADSGLTLYRYAMGWYRQAPGKERELVAAISSGDRTNYADSVKGRFTISRDNAKNTVYLHMNSLKPEDTAVYYCAALRQARQKKYGYWGQGTQVTVSS”, the “polyreactivity (PSR sort gate)” value is “high polyreactivity”.

With “QVQLVESGGGLVQAGGSLRLSCAASGRILYPYAMGWYIQAPGKERELVAAITFIGGSTYYADSVKGRFTISRDNAKNTVYLQMNSLKPEDTAVYYCNAKPHRPSLLRWRIGNYWGQGTQVTVSS”, the “polyreactivity (PSR sort gate)” value was “high polyreactivity”.

As for “QVQLVESGGGLVQAGGSLRLSCAASGIIFPVYAMGWYRQAPGKERELVATIDSGGGTYYADSVKGRFTISRDNAKNTVYLQMNSLKPEDTAVYYCAADLWVGLVSLWDGYVEYDYWGQGTQVTVSS”, the “polyreactivity (PSR sort gate)” value is recorded as “low polyreactivity”.

As to “QVQLVESGGALVQAGGSLRLSCAASGSTFSWYAMGWYRQAPGKERELVAAITTRGGSTYYADSVKGRFTISRDNAKNTVYLQMTRLKPEDTAVYYCAADDGWDFGRGRYDYWGQGTQVTVSS”, the “polyreactivity (PSR sort gate)” value is recorded as “low polyreactivity”.

For the sequence “QLQLVESGGGLVQAGGSLRLTCAASGSIIWVYAMGWYSQAPGKEWELVAAITSGVSTYYADSVKGRFTISRDHAKNTVSFQMISLKPEDTAVYYCAVVGGFRWIRMEYWGQGTQVTVSS”, the “polyreactivity (PSR sort gate)” value was “low polyreactivity”.

For the sequence “QVQLVESGGGLVQAGGSLRLSCAASGLTFSYYTMGWYRQAPGKERELVAAISKSAGSTYYADSVKGRFTISRDNAKNTVYLQMNSLKPEDTAVYYCAARFGYQYSYGYNYWGQGTQVTVSS”, the “polyreactivity (PSR sort gate)” value was “high polyreactivity”.

As to “QVQLVESGGGLVQAGGSLRLSCAASGIILTEYAMGWYRQAPGKERELVAAINRVGSTNYADSVKGRFTISRDNAKNTVYLQMNSLKPEDTAVYYCAAGTYYNDYDYWGQGTQVTVSS”, the “polyreactivity (PSR sort gate)” value is on record as “low polyreactivity”.

With “QVQLVESGGGLVQAGGSLRLSCAASGSTFVYNAMGWYRQAPGKERELVAAISWSDGSTYYADSVKGRFTISRDNAKNTVYLELNSLKPEDTAVYYCADEGYYSWDVHDYNYWGQGTQVTVSS”, the “polyreactivity (PSR sort gate)” value is listed as “high polyreactivity”.

On to “QVQLVESGGGLVQAGGSLRLSWAASGFIFGFYAMGWYRQAPGKERELVADITSSGGSTYYADSVKGRFTISRDNAKNTVYLQMNSLKQEDTAVYYCAADGWLHNFYPGTGLDYWGQGTQVTVSS”, for which the “polyreactivity (PSR sort gate)” value is “low polyreactivity”.

For “QLQHVESGGGLVQAGGSLRLTCAASGYTYHGYAMGWYRQAPGKERELVAVITQRGGSTSYADSVKGSFTISRDYAKNNVNLQMKSLKPVDTAVYYCNDSAWLVVARTRYGYWGQGTQVTVSS”, the “polyreactivity (PSR sort gate)” value is on record as “low polyreactivity”.

Take “QVHLVDSGAGLVQAGGSLRLSCAASGYTFYANAMGWYRQAPGKERELVAGINRSGSTYYADSVKGRFTISRDNAKNTVYLQMNSLKPEDTAVYYCATAWHRGVRGRTSGAFDYWGQGTQVTVSS”: the “polyreactivity (PSR sort gate)” value was “high polyreactivity”.

For “QVQLVETGGGLVQAGGSLRLSCAASGFTFRRYTMGWYRQAPGKERELVAAISGRGGRTYYADSVKGRFTISRDNAKNTVDLQMNSLKPEDTAVYYCAADTPYCQSSKYDYWGQGNQVTVSS”, the “polyreactivity (PSR sort gate)” value is listed as “high polyreactivity”.

With “QVQLVESGGGLVQAGGSLRLSCAASGLIFSGYAMGWYRQAPGKERELVAAINSGTSTTYADSVKGRFTISRDNAKNTVYLQMNSLKPEDTAVYYCNTPHNQDKPYPGYDYWGQGTQVTVSS”, the “polyreactivity (PSR sort gate)” value is reported as “low polyreactivity”.

“QVQLVESGGGLVQAGGSLRLSCAASGFILDTYGMGWYRQAPGKERELVAAISQSDVSTYYADSVKGRFTISRDNAKNTVYLQMNSLKQEDTAVYYCAADRGGLRWFWQVVYDYWGQGTQVTVSS”: the “polyreactivity (PSR sort gate)” value was “low polyreactivity”.

Regarding “QVHLVESGGALVQAGGSLRLSCAASGRTFGIYAMGWYRQAPGKERELVATISWRGGSTYYADSVKGRFPISRDNAKNTVYLQMNSLKPEDTAVYYCAAGYYPYWGQGTQVTVSS”, the “polyreactivity (PSR sort gate)” value was “low polyreactivity”.

For the sequence “QVQLVESGGGLVQAGGSLRLSCAASGSTFRYYVMGWSRQAPGKEMELVAGISYRGGTTYYADSVKGRFTISRDNAKITVYLQMNSMKPEDTAVYYCNAGYTLYHYYSWYAFGYWGQGTQGTVSS”, the “polyreactivity (PSR sort gate)” value is on record as “low polyreactivity”.

Turning to “QVQLVESGGGLVQAGGSLRLSCAGSGFIITQYPMGWYRQAPGKERELVAAISGNGGRTYYADSVKGRFTISRDNAKNTDYLQMNSLKPEDTAVYYCAVTRPGRRYPFGYDYWGQGTQVTVSS”, the “polyreactivity (PSR sort gate)” value is “low polyreactivity”.

Take “QDQLVESGGGLVQAGGSLRLSCAASGSIFGVYAMGWYRQAPGKERELVAVISFNSGSTNYADSVKGRFTISRDNAKNTVYLQMNSLKPEDTAVYYCNSDAWHETQVSGYSWGQGTQVTVSS”: the “polyreactivity (PSR sort gate)” value was “low polyreactivity”.

Consider “QVQLVESGGGLVQAGGSLRLSCAASGITFVRYTMGWYRQAPGKEREFVAGITRGGSTYYADSVKGRFTISRDNAKNTVYLQMNSLKPEDTAVYYCAARPRFLRASVEYDYWGQGTQVTVSS”, for which the “polyreactivity (PSR sort gate)” value is given as “high polyreactivity”.

Take “QVQLVESGGGLVQAGGSLRLSCAASGRIFYYNGMGWYRQAPGKERELVAAITANGGSTYYADSVKGRFTISRDNAKHTVYLQMNSLKPEDTAVYYCAAVYQLYYSAGRGYDYWGQGTQVTVSS”: the “polyreactivity (PSR sort gate)” value was “high polyreactivity”.

With “QVQLVESGGGLVQAGGSLRLSCAASGSILRTYTMGWYRQAPGKERELVAAISSSGGRTYYADSVKGRFTISRDNAKNTVYLQMNSLKPEDTAVYYCNAGGYRYRSYDYWGQGTQVTVSS”, the “polyreactivity (PSR sort gate)” value is “high polyreactivity”.

As to “QVQLVESGGGLVQAGGSLRLSCDASGRIFRKYAMGWYRQAPGKERELVAGITWRGTSTYYADSVKGRFTISRDNAKNTVYLPMNSLKPEDTAVYYCAAEWKGYYVHDYWGQGTQVTVSS”, the “polyreactivity (PSR sort gate)” value is given as “high polyreactivity”.

Take “QLQLVESGGGLVQAGGSLRLSCAASGRTFPGNAMGWYRQEPGKERELVATITWSSGRTHYADSVKGRFTISRDNAKNTVYLQMNSLKPEDTAVYYCAAKWIVAVGGFYYWGQGTQVTVSS”: the “polyreactivity (PSR sort gate)” value is listed as “low polyreactivity”.

Take “QVQLVESGGGLVQAGGSLRLSCAASGSIFGVYAMGWYRQAPGKERELVAAISWSGTSTYYADSVKGRFTISRDNAKNTVYLQMNSLKPEDTAVYYCNADWVLDGYDYDYWGQGTQVTVSS”: the “polyreactivity (PSR sort gate)” value is on record as “low polyreactivity”.

As to “QVQLVESGGGLVQAGGSLRLSCAASGRTSKVYAMGWYRQAPGTERELVAAITRGNTYYADSVKGRFTISRDNAKNTVYLQMNSLKPEDTAVYYCAADYRYWLSYFKKYDYWGQGTQVTVSS”, the “polyreactivity (PSR sort gate)” value is recorded as “high polyreactivity”.

Consider “QDQLVESGGGLVQAGGSLRLSCAASGSIFGVYAMGWYRQAPGKEGELVAAISWTDGTTYYADSVKGRFTISRDNAKNTVYLQMNSLKQEDTAVYYCAVTYPRVAKVMYYWGQGTQVNVSS”, for which the “polyreactivity (PSR sort gate)” value is listed as “high polyreactivity”.

With “QVQLVESGGGLVQAGGSLRLSCAASGRIFVYYPMGWYRQAPGIERELVAAINAGGSTNYADSVKGRFTISRDNAKNTVYLQMNSLKPEDTAVYYCAAVRRSRYSYRGYYWGQGTQVTVSS”, the “polyreactivity (PSR sort gate)” value is “high polyreactivity”.

Take “QVQLVESGGGLVQAGGSLRLSCAASGSTFTSYAMGWYRQAPGKERELVAAITYGSGTTYADSVKGRFTISRDNAKNTVYLQMNSLKPEDTAVYYCAADFYYPVLGHGFPTYEYDYWGQGTQVTVSS”: the “polyreactivity (PSR sort gate)” value was “low polyreactivity”.

On to “QVQLVESGGGLVQAGGSLRLSCAPSGFIFIRYAMGWYRQAPGKERELVASISWRGESTYYADSVKWRFTISRDNAKNTVYLQRNILKPEDTAVYYCAATGINSGPGRMDYWGQGTQVTVSS”, for which the “polyreactivity (PSR sort gate)” value is given as “high polyreactivity”.
